Consider 4 molecules from patent US20230212319A1, “NOVEL ANTIGEN BINDING DOMAINS AND SYNTHETIC ANTIGEN RECEPTORS INCORPORATING THE SAME” (University of Southern California, priority 2020, published 2023).

Holding throughout (assay type): cell-based
One experiment deals with U266 cells. The experiment is described as follows: JNG NFAT-GFP induction on co-culture with U266.
The next experiment concerns Nalm6 cells. The experiment is described as follows: JNG assay, co-culture with Nalm6 cells. The note with it: co-culture with Nalm6. Summed up:
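Values are semi-quantitative grades of GFP induction, each step approximating 10% more GFP+ cells (5+ ≈50%) above parental reporter cells, measured by FACS after SAR-transduced JNG cells were cultured with targets at ~1:2 E:T for ~4–18 h.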

In a further experiment the test system is RAJI cells. The experiment is described as follows: JNG assay, co-culture with RAJI cells. The note with it: JNG cells expressing construct, co-culture with Raji. The procedure, abridged:
(§1)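 Read-out is NFAT-driven GFP measured by flow cytometry after ~4–18 h co-culture of SAR-expressing JNG cells with target cells (E:T about 1:2). SARs were introduced by lentiviral spinfection and selected with puromycin or blasticidin when possible; scores (+/- to 5+ ≈ 5–50% GFP+) are relative to parental JNG cells.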

In the next experiment the test system is RS;411. The experiment is described as follows: JNG assay, co-culture with RS;411 cells. The following applies: co-culture with RS411. Summed up: as §1
A further experiment has as its system L363 cells. The experiment is described as follows: JNG assay, co-culture with L363 cells. The following applies: co-culture with L363. Summed up:
as §1

For the next experiment, the system named is RAJI-CD19-KO cells. Kind of experiment: JNG assay, co-culture with RAJI-CD19-KO cells. The following applies: co-culture with Raji-CD19-KO. Summed up:
as §1

B1: 22145 (protein)
chain: MALPVTALLLPLALLLHAARPACEVQLLESGGGLIQPGGSLRLSCAASGFTFSSHAMTWVRQAPGKGLEWVSAISGSGDYTHYADSVKGRFTISRDNSKNTVYLQMNSLRAEDSAVYYCAKDEDGGSLLGHRGQGTLVTVSSGTGGGGSGGGGSGGGGSEFDIQMTQSPSSLSASVGDRVTITCRASQDISNYLNWYQQKPGKAVKLLIYYTSILHSGVPSRFSGSGSGTDYTLTISSLQPEDFATYFCQQGNTLPWTFGGGTKVEIKLEGQPKANPTVTLFPPSSEELQANKATLVCLISDFYPGAVTVAWKADGSPVKAGVETTKPSKQSNNKYAASSYLSLTPEQWKSHRSYSCQVTHEGSTVEKTVAPTECSPIKTDVITMDPKDNCSKDANDTLLLQLTNTSAYYMYLLLLLKSVVYFAIITCCLLRRTAFCCNGEKSRAKRSGSGATNFSLLKQAGDVEENPGPTSATMDWIWRILFLVGAATGAHSGPQVQLQESGGGLAQAGGSLRLSCAASGRTFSMGWFRQAPGKEREFVAAITYSGGSPYYASSVRGRFTISRDNAKNTVYLQMNSLKPEDTAVYYCAANPTYGSDWNAENWGQGTQVTVSSGSGGGGSGGGGSGGGGSFEVQLVESGGGLVKPGGSLKLSCAASGFAFSIYDMSWVRQAPGKGLEWVAYISSGGGTTYYPDTVKGRFTISRDNAKNTLYLQMSSLRAEDTAMYYCARHSGYGSSYGVLFAYWGQGTLVTVSSTRASTKGPSVFPLAPSSKSTSGGTAALGCLVKDYFPEPVTVSWNSGALTSGVHTFPAVLQSSGLYSLSSVVTVPSSSLGTQTYICNVNHKPSNTKVDKRVEPKSCEVKTDSTDHVKPKETENTKQPSKSCHKPKAIVHTEKVNMMSLTVLGLRMLFAKTVAVNFLLTAKLFFLRAKRSGSGVKQTLNFDLLKLAGDVESNPGPSRGHMTEYKPTVRLATRDDVPRAVRTLAAAFADYPATRHTVDPDRHIERVTELQELFLTRVGLDIGKVWVADDGAAVAVWTTPESVEAGAVFAEIGPRMAELSGSRLAAQQQMEGLLAPHRPKEPAWFLATVGVSPDHQGKGLGSAVVLPGVEAAERAGVPAFLETSAPRNLPFYERLGFTVTADVEVPEGPRTWCMTRKPGA
In the case of B1, the “NFAT-GFP ASSAY: U266” value in the experiment on U266 cells is 2+ (refer to approximately 5%, 10%, 20%, 30%, 40% and 50% GFP positive cells). Besides, the “NFAT-GFP ASSAY: Nalm6” value with Nalm6 cells is “+ (refer to approximately 5%, 10%, 20%, 30%, 40% and 50% GFP positive cells)”. In addition, the “NFAT-GFP ASSAY: Raji” value with RAJI cells is “+/- (refer to approximately 5%, 10%, 20%, 30%, 40% and 50% GFP positive cells)”. The “NFAT-GFP ASSAY: RS411” value in the experiment with RS;411 was “+ (refer to approximately 5%, 10%, 20%, 30%, 40% and 50% GFP positive cells)”.

B2: 22221 (protein)
chain: MALPVTALLLPLALLLHAARPACEVQLLESGGGLIQPGGSLRLSCAASGFTFSSHAMTWVRQAPGKGLEWVSAISGSGDYTHYADSVKGRFTISRDNSKNTVYLQMNSLRAEDSAVYYCAKDEDGGSLLGHRGQGTLVTVSSGTGPQGIFGQPGYINEFDIQMTQSPSSLSASVGDRVTITCKASDHINNWLAWYQQKPGQAPKLLIYGATTLETGVPSRFSGSGSGTDYTLTISSLQPEDFATYYCQQSWNTPWTFGQGTKLEIKRLEDLKNVFPPEVAVFEPSKAEIAHTQKATLVCLATGFYPDHVELSWWVNGKEVHSGVCTDPQPLKEQPALNDSRYCLSSRLRVSATFWQNPRNHFRCQVQFYGLSENDEWTQDRAKPVTQIVSAEAWGRADCGITSASYHQGVLSATILYEILLGKATLYAVLVSALVLMAMVKRKDSRGRAKRSGSGATNFSLLKQAGDVEENPGPTSATMDWIWRILFLVGAATGAHSGPEVQLVESGGGLVQAGGSLRLSCAASGRTFSMGWFRQAPGKEREFVAAITYSGGSPYYADSVKGRFTISRDNAKNTVYLQMNSLKPEDTAVYYCAANPTYGSDWNAENWGQGTQVTVSSGSGGGGSGGGGSGGGGSFEQVQLQQPGAELVKPGASVKMSCKASGYAFSSYWINWMKQKPGQGLEWIGQIYPGDGDTNYNGKFKGRATLTADTSSSTAYMQLSSLTSEDSAVYFCARSITTVVGCAMDYWGQGTSVTVSSTRIQNPDPAVYQLRDSKSSDKSVCLFTDFDSQTNVSQSKDSDVYITDKCVLDMRSMDFKSNSAVAWSNKSDFACANAFNNSIIPEDTFFPSPESSCDVKLVEKSFETDTNLNFQNLSVIGFRILLLKVAGFNLLMTLRLWSSRAKRSGSGVKQTLNFDLLKLAGDVESNPGPSRGHMTEYKPTVRLATRDDVPRAVRTLAAAFADYPATRHTVDPDRHIERVTELQELFLTRVGLDIGKVWVADDGAAVAVWTTPESVEAGAVFAEIGPRMAELSGSRLAAQQQMEGLLAPHRPKEPAWFLATVGVSPDHQGKGLGSAVVLPGVEAAERAGVPAFLETSAPRNLPFYERLGFTVTADVEVPEGPRTWCMTRKPGA
With B2, in the experiment on U266 cells, the “NFAT-GFP ASSAY: U266” value is 2+ (refer to approximately 5%, 10%, 20%, 30%, 40% and 50% GFP positive cells). Besides, the “NFAT-GFP ASSAY: Nalm6” value in the experiment on Nalm6 cells is “+ (refer to approximately 5%, 10%, 20%, 30%, 40% and 50% GFP positive cells)”. Also, the “NFAT-GFP ASSAY: L363” value in the experiment with L363 cells is “+ (refer to approximately 5%, 10%, 20%, 30%, 40% and 50% GFP positive cells)”. In the experiment on RS;411, the “NFAT-GFP ASSAY: RS411” value was “+ (refer to approximately 5%, 10%, 20%, 30%, 40% and 50% GFP positive cells)”.

B3: 22135 (protein)
chain: MALPVTALLLPLALLLHAARPACEVQLLESGGGLIQPGGSLRLSCAASGFTFSSHAMTWVRQAPGKGLEWVSAISGSGDYTHYADSVKGRFTISRDNSKNTVYLQMNSLRAEDSAVYYCAKDEDGGSLLGHRGQGTLVTVSSGTGGGGSGGGGSGGGGSEFDIQMTQSPSSLSASVGDRVTITCKASDHINNWLAWYQQKPGQAPKLLIYGATTLETGVPSRFSGSGSGTDYTLTISSLQPEDFATYYCQQSWNTPWTFGQGTKLEIKRLEDLKNVFPPEVAVFEPSEAEISHTQKATLVCLATGFYPDHVELSWWVNGKEVHSGVCTDPQPLKEQPALNDSRYCLSSRLRVSATFWQNPRNHFRCQVQFYGLSENDEWTQDRAKPVTQIVSAEAWGRADCGFTSESYQQGVLSATILYEILLGKATLYAVLVSALVLMAMVKRKDSRGRAKRSGSGATNFSLLKQAGDVEENPGPTSATMDWIWRILFLVGAATGAHSGPEVQLVESGGGLVQAGGSLRLSCAASGRTFSMGWFRQAPGKEREFVAAITYSGGSPYYADSVKGRFTISRDNAKNTVYLQMNSLKPEDTAVYYCAANPTYGSDWNAENWGQGTQVTVSSGSGGGGSGGGGSGGGGSFEQVQLQQPGAELVKPGASVKMSCKASGYAFSSYWINWMKQKPGQGLEWIGQIYPGDGDTNYNGKFKGRATLTADTSSSTAYMQLSSLTSEDSAVYFCARSITTVVGCAMDYWGQGTSVTVSSTRIQNPDPAVYQLRDSKSSDKSVCLFTDFDSQTNVSQSKDSDVYITDKCVLDMRSMDFKSNSAVAWSNKSDFACANAFNNSIIPEDTFFPSPESSCDVKLVEKSFETDTNLNFQNLSVIGFRILLLKVAGFNLLMTLRLWSSRAKRSGSGVKQTLNFDLLKLAGDVESNPGPSRGHMTEYKPTVRLATRDDVPRAVRTLAAAFADYPATRHTVDPDRHIERVTELQELFLTRVGLDIGKVWVADDGAAVAVWTTPESVEAGAVFAEIGPRMAELSGSRLAAQQQMEGLLAPHRPKEPAWFLATVGVSPDHQGKGLGSAVVLPGVEAAERAGVPAFLETSAPRNLPFYERLGFTVTADVEVPEGPRTWCMTRKPGA
Consider B3, for which the “NFAT-GFP ASSAY: U266” value in the experiment on U266 cells was 3+ (refer to approximately 5%, 10%, 20%, 30%, 40% and 50% GFP positive cells). In the experiment with L363 cells, the “NFAT-GFP ASSAY: L363” value is 2+ (refer to approximately 5%, 10%, 20%, 30%, 40% and 50% GFP positive cells). Also, the “NFAT-GFP ASSAY: RS411” value with RS;411 was 2+ (refer to approximately 5%, 10%, 20%, 30%, 40% and 50% GFP positive cells).

B4: 22249 (protein)
chain: MALPVTALLLPLALLLHAARPDIQMTQSPSSLSASVGDRVTITCKASDHINNWLAWYQQKPGQAPKLLIYGATTLETGVPSRFSGSGSGTDYTLTISSLQPEDFATYYCQQSWNTPWTFGQGTKLEIKRLEDLKNVFPPEVAVFEPSEAEISHTQKATLVCLATGFYPDHVELSWWVNGKEVHSGVCTDPQPLKEQPALNDSRYCLSSRLRVSATFWQNPRNHFRCQVQFYGLSENDEWTQDRAKPVTQIVSAEAWGRADCGFTSESYQQGVLSATILYEILLGKATLYAVLVSALVLMAMVKRKDSRGRAKRSGSGATNFSLLKQAGDVEENPGPTSATMDWIWRILFLVGAATGAHSGPEVQLVESGGGLVQAGGSLRLSCAASGRTFTMGWFRQAPGKEREFVAAISLSPTLAYYADSVKGRFTISRDNAKNTVVLQMNSLKPEDTALYYCAADRKSVMSIRPDYWGQGTQVTVSSGSALRRLLGLFGFEQVQLQQPGAELVKPGASVKMSCKASGYAFSSYWINWMKQKPGQGLEWIGQIYPGDGDTNYNGKFKGRATLTADTSSSTAYMQLSSLTSEDSAVYFCARSITTVVGCAMDYWGQGTSVTVSSTRIQNPDPAVYQLRDSKSSDKSVCLFTDFDSQTNVSQSKDSDVYITDKCVLDMRSMDFKSNSAVAWSNKSDFACANAFNNSIIPEDTFFPSPESSCDVKLVEKSFETDTNLNFQNLSVIGFRILLLKVAGFNLLMTLRLWSSRAKRSGSGVKQTLNFDLLKLAGDVESNPGPSRGHMTEYKPTVRLATRDDVPRAVRTLAAAFADYPATRHTVDPDRHIERVTELQELFLTRVGLDIGKVWVADDGAAVAVWTTPESVEAGAVFAEIGPRMAELSGSRLAAQQQMEGLLAPHRPKEPAWFLATVGVSPDHQGKGLGSAVVLPGVEAAERAGVPAFLETSAPRNLPFYERLGFTVTADVEVPEGPRTWCMTRKPGA
Regarding B4, the “NFAT-GFP ASSAY: U266” value in the experiment on U266 cells was 4+ (refer to approximately 5%, 10%, 20%, 30%, 40% and 50% GFP positive cells). Moreover, in the experiment with RAJI cells, the “NFAT-GFP ASSAY: Raji” value is “+ (refer to approximately 5%, 10%, 20%, 30%, 40% and 50% GFP positive cells)”. Further, in the experiment on L363 cells, the “NFAT-GFP ASSAY: L363” value is 2+ (refer to approximately 5%, 10%, 20%, 30%, 40% and 50% GFP positive cells). The “NFAT-GFP ASSAY: Raji-CD19-KO” value with RAJI-CD19-KO cells is 2+ (refer to approximately 5%, 10%, 20%, 30%, 40% and 50% GFP positive cells). In the experiment on RS;411, the “NFAT-GFP ASSAY: RS411” value is “+ (refer to approximately 5%, 10%, 20%, 30%, 40% and 50% GFP positive cells)”.
